Assay results taken from US20220306733A1.
Substitutions are numbered along the chain they refer to. Blank lines part the entries; values can stand above or below the binder they belong to.

Biological target: Polyspecificity reagent (PSR): biotinylated soluble membrane proteins of CHO cells
Test: flow cytometry, biotinylated PSR on IgG-presenting yeast

- Polyspecificity Reagent (PSR) Score (0-1): 0 score 0-1
B1: anti-TIGIT antibody clone 26486 (antibody, V domains shown)
VH: QVQLQESGPGLVKPSETLSLTCAVSGYSISSGYYWAWIRQPPGKGLEWIGSIYHSGSTYYNPSLKSRVTISVDTSKNQFSLKLSSVTAADTAVYYCAIEGANYYDFGYVAFDIWGQGTMVTVSS
VL: EIVMTQSPATLSVSPGERATLSCRASQSVSSNLAWYQQKPGQAPRLLIYGASTRATGIPARFSGSGSGTEFTLTISSLQSEDFAVYYCQQSPPWPRTFGGGTKVEIK

- Polyspecificity Reagent (PSR) Score (0-1): 0 score 0-1
B2: anti-TIGIT antibody clone 32931 (antibody, V domains shown)
VH: QLQLQESGPGLVKPSETLSLTCTVSGGSISSGSYYLAWIRQPPGKGLEWIGSIFRSGSTYYNPSLESRVTISVDTSKNQFSLKLSSVTAADTAVYYCAIEGANFKDFGYVAFDIWGQGTTVTVSS
VL: B1 VL with Q27K, G50F, S91T, P92S

- Polyspecificity Reagent (PSR) Score (0-1): 0 score 0-1
B3: anti-TIGIT antibody clone 29494 (antibody, V domains shown)
VH: B2 VH with L2V, T120M
VL: B1 VL

- Polyspecificity Reagent (PSR) Score (0-1): 0 score 0-1
B4: anti-TIGIT antibody clone 31288 (antibody, V domains shown)
VH: B2 VH
VL: B1 VL

- Polyspecificity Reagent (PSR) Score (0-1): 0.1 score 0-1
B5: anti-TIGIT antibody clone 29499 (antibody, V domains shown)
VH: B2 VH with G32S, S33R, L36W, F54G, R55T, E66K, A90T, K105R, T120M
VL: B1 VL

- Polyspecificity Reagent (PSR) Score (0-1): 0 score 0-1
B6: anti-TIGIT antibody clone 26493 (antibody, V domains shown)
VH: EVQLVESGGGLVQPGRSLRLSCAASGFTFGDYAMHWVRQAPGKGLEWVSGITWNSGSIGYADSVKGRFTISRDNAKNSLYLQMNSLRAEDTALYYCAKPVPKSRGLDVWGQGTMVTVSS
VL: DIQLTQSPSSVSASVGDRVTITCRASQGISSWLAWYQQKPGKAPKLLIYGASSLQSGVPSRFSGSGSGTDFTLTISSLQPEDFATYYCQQAFYLPWTFGGGTKVEIK

- Polyspecificity Reagent (PSR) Score (0-1): 0.12 score 0-1
B7: anti-TIGIT antibody clone 29527 (antibody, V domains shown)
VH: QVQLVESGGGVVQPGRSLRLSCAASGFTFSSSYMHWVRQAPGKGLEWVAVIGADGSNKYYADSVEGRFTISRDNSKNTLYLQMNSLRAEDTALYYCAKPVPRRRGLDVWGQGTMVTVSS
VL: B6 VL

- Polyspecificity Reagent (PSR) Score (0-1): 0.32 score 0-1
B8: anti-TIGIT antibody clone 29520 (antibody, V domains shown)
VH: B6 VH with E1Q, G30R, S57L, K102R, S103L
VL: B6 VL

- Polyspecificity Reagent (PSR) Score (0-1): 0.12 score 0-1
B9: anti-TIGIT antibody clone 29523 (antibody, V domains shown)
VH: B7 VH with Q1E, S30G, S32Y, G52W, A53P, Y59L, E65K, R102K, R103S, G105A
VL: B6 VL

- Polyspecificity Reagent (PSR) Score (0-1): 0.01 score 0-1
B10: anti-TIGIT antibody clone 29513 (antibody, V domains shown)
VH: QVQLVQSGAEVKKPGSSVKVSCKASGGTFQNYAISWVRQAPGQGLEWMGVIVPIFGTANYAQKFQGRVTVTADESTSTAYMELSSLRSEDTAVYYCARLHLGQKAYYGMDVWGQGTTVTVSS
VL: DIQMTQSPSSLSASVGDRVTITCRASQSISSYLNWYQQKPGKAPKLLIYAASSLQSGVPSRFSGSGSGTDFTLTISSLQPEDFATYYCQQRYVFPPTFGGGTKVEIK
